# Measured values as given in US6657045 (NEW ENGLAND MEDICAL CENTER HOSPITALS, dated 2003).
# T1: Ulex europeus agglutinin-1 (Ulex europeus, UniProt P22972 1-243, biotinylated)
# T1 construct: Lectin; also called UEA-1
# T1 sequence: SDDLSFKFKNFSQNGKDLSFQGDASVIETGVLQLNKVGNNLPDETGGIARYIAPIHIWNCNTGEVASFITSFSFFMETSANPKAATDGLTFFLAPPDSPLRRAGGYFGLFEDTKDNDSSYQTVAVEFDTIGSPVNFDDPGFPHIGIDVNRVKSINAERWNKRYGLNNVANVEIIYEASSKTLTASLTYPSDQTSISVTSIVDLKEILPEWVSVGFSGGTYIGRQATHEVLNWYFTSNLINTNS
# B1: gp40 (native 40 kDa glycoprotein of Cryptosporidium parvum) (other)
# chain: DVPVEGSSSSSSSSSSSSSSSSSSSTSTVAPANKARTGEDAEGSQDSSGTEASGSQGSEEEGSEDDGQTSAASQPTTPAQSEGATTETIEATPKEECGTSFVMWFGEGTPAATLKCGAYTIVYAPIKDQTDPAPRYISGEVTSVTFEKSDNTVKIKVNGQDFSTLSANSSSPTENGGSAGQASSRSRRSLSE
# modifications: native glycoprotein: O-linked glycans with terminal α-linked GalNAc on Ser/Thr
# notes: Native protein from oocysts, sporozoites, shed proteins or HPA-purified lysate; also called 40,000 Mr peptide; 40 kDa band
# How the values were obtained:
# [1] = biological target: T1, Ulex europeus agglutinin-1; assay: biotinylated lectin blot of shed proteins
# Source text: (§1) In order to determine the nature of the carbohydrates present, SP were probed with a panel of biotinylated lectins of varying sugar specificity (Table 1).
# Glycine max agglutinin = biological target: T2, Glycine max agglutinin (Glycine max, UniProt P05046 33-285, biotinylated); assay: biotinylated lectin blot of shed proteins
# T2 construct: Lectin; also called SBA
# T2 sequence (P05046 33-285 limits assumed): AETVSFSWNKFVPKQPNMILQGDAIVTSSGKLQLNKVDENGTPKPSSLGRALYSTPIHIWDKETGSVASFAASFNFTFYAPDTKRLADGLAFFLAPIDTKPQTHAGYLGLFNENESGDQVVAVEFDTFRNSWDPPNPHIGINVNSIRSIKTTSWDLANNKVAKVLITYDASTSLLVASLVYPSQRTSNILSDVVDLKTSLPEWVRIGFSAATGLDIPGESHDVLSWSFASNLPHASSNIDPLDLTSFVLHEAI
# Source text: as §1
binder,measurement,setting,value
B1,binding result,[1],binds
same,binding result,Glycine max agglutinin,binds
